How the values were obtained:
Assay in all cases: phage ELISA, Fab adsorbed on plate, peptide-displaying phage added, anti-M13-HRP detection
[1] = biological target: T1, Phage-displayed dodecapeptide of SEQ ID NO 7 (Ph.D.-12 library clone) (filamentous phage M13)
T1 construct: In the screening ELISA the peptide stood on whole M13 phage particles, not as a free peptide; not shown: cpIII coat protein of the filamentous phage M13; the dodecapeptide is at its N-terminus
T1 peptide: MQSPIVLPLSLS

[2] = biological target: T2, Phage-displayed dodecapeptide of SEQ ID NO 8 (Ph.D.-12 library clone) (filamentous phage M13)
T2 construct: In the screening ELISA the peptide stood on whole M13 phage particles, not as a free peptide; not shown: cpIII coat protein of the filamentous phage M13; the dodecapeptide is at its N-terminus
T2 peptide: HHEPGAWLPLSP

[3] = biological target: T3, Phage-displayed dodecapeptide of SEQ ID NO 6 (Ph.D.-12 library clone) (filamentous phage M13)
T3 construct: In the screening ELISA the peptide stood on whole M13 phage particles, not as a free peptide; not shown: cpIII coat protein of the filamentous phage M13; the dodecapeptide is at its N-terminus
T3 peptide: MQSPFTPHFAER

[4] = biological target: T4, Phage-displayed dodecapeptide of SEQ ID NO 5 (Ph.D.-12 library clone) (filamentous phage M13)
T4 construct: In the screening ELISA the peptide stood on whole M13 phage particles, not as a free peptide; not shown: cpIII coat protein of the filamentous phage M13; the dodecapeptide is at its N-terminus
T4 peptide: TMGFTAPRFPHY

Measured: OD450nm

B1: Fab 68 (soluble Fab, heavy chain clone 6 and light chain clone 8 from a coronary plaque sample) (Fab, V domains shown)
VH: LEESGAEVKKPGENLKISCEASGYNFVNHWIGWVRQMPGRGLEWMGRIYPGDSETRFSPSFQGQVTISVDKTLSTASLQWNSLKTSDSATYYCVTLGRWSSWQGGALSWGQGT
VL: ELTQSPATVSVSPGERATLSCRASQSISFHLAWYQQKPGQAPSLLIYGTSTRATGIPARFSGSGSGTEFTLTISSLQSEDSAVYYCQQYHNWPPLTFGGGT
notes: also called Fab of the invention; Fabs of the present invention
> 1 OD450nm: all assays above

Reference: patent publication US20120115741A1 (BRACCO IMAGING S P A, published 2012)
